{"source": "patent KR20170021349A", "about": "“다양한 질병의 치료를 위한 jnk 신호 전달 경로의 세포 투과성 펩타이드 억제자의 새로운 용도” (자이겐 인플라메이션 리미티드, priority 2014, dated 2017)", "key": {"Brown Norway rats": {"system": "Brown Norway rats", "assay": "STZ diabetic retinopathy prevention, intravitreal, ERG", "format": "in vivo, rat"}, "[1]": {"system": "Huh7 tumours in nude mice", "assay": "Huh7 human liver cancer xenograft", "format": "in vivo, mouse", "conditions": "5 mg/kg i.p. twice weekly, 4 weeks"}, "[2]": {"system": "HCT 116 tumours in SCID mice", "assay": "Orthotopic HCT 116 human colon tumour", "format": "in vivo, mouse"}, "[3]": {"system": "female Sprague-Dawley rats", "assay": "Cyclophosphamide (CYP)-induced acute cystitis, intravesical treatment", "format": "in vivo, rat", "conditions": "24 h after CYP"}, "[4]": {"system": "primary mouse cortical neurons", "assay": "JNK activation in cortical neurons under H2O2 oxidative stress", "format": "cell-based", "conditions": "5 μM pre-treatment; 1 mM H2O2 15 min"}, "murine macrophages": {"system": "murine macrophages", "assay": "LPS-induced cytokine release in primary cells", "format": "cell-based, mouse", "conditions": "Fig. 28 A-C, non-toxic concentrations"}, "[5]": {"assay": "Ocular MTD study, subconjunctival", "format": "in vivo, rabbit"}}, "note": "“And” between values parts separate entries of the source, which are not always exact repeats. Equal entries are not always repeated.", "data": [{"substance": "NH2-DQSRPVQPFLNLTTPRKPRPPRRRQRRKKRG-COOH (H-DQSRPVQPFLNLTTPRKPRPPRRRQRRKKRG-OH; also: D-amino acids (positions not given here)) [XG-102]", "values": [{"measurement": "scotopic single flash -10dB A-wave amplitude", "setting": "Brown Norway rats; 0.2 μg/eye, day 13", "result": -128, "unit": "μV"}, {"measurement": "scotopic single flash -30dB B-wave amplitude", "setting": "Brown Norway rats; 0.2 μg/eye, day 13", "result": 270, "unit": "μV"}, {"measurement": "OP#1 scotopic single flash 0dB amplitude", "setting": "Brown Norway rats; 0.2 μg/eye, day 20", "result": 36, "unit": "μV"}, {"measurement": "OP#2 scotopic single flash 0dB amplitude", "setting": "Brown Norway rats; 0.2 μg/eye, day 20", "result": 70, "unit": "μV"}, {"measurement": "OP#3 scotopic single flash 0dB amplitude", "setting": "Brown Norway rats; 0.2 μg/eye, day 20", "result": 164, "unit": "μV"}, {"measurement": "OP#4 scotopic single flash 0dB amplitude", "setting": "Brown Norway rats; 0.2 μg/eye, day 20", "result": 116, "unit": "μV"}, {"measurement": "photopic 1Hz flicker A-wave amplitude", "setting": "Brown Norway rats; 0.2 μg/eye, day 20", "result": -2, "unit": "μV"}, {"measurement": "photopic 1Hz flicker B-wave amplitude", "setting": "Brown Norway rats; 0.2 μg/eye, day 20", "result": 70, "unit": "μV"}, {"measurement": "photopic 29Hz flicker B-wave amplitude", "setting": "Brown Norway rats; 0.2 μg/eye, day 20", "result": 10, "unit": "μV"}, {"measurement": "scotopic single flash 0dB A-wave amplitude", "setting": "Brown Norway rats; 0.2 μg/eye, day 20", "result": -198, "unit": "μV"}, {"measurement": "scotopic single flash 0dB B-wave amplitude", "setting": "Brown Norway rats; 0.2 μg/eye, day 20", "result": 433, "unit": "μV"}, {"measurement": "scotopic single flash -10dB A-wave amplitude", "setting": "Brown Norway rats; 0.2 μg/eye, day 20", "result": -129, "unit": "μV"}, {"measurement": "scotopic single flash -30dB B-wave amplitude", "setting": "Brown Norway rats; 0.2 μg/eye, day 20", "result": 240, "unit": "μV"}, {"measurement": "OP#1 scotopic single flash 0dB amplitude", "setting": "Brown Norway rats; 2 μg/eye IVT d1,8,15, day 6", "result": 40, "unit": "μV"}, {"measurement": "OP#2 scotopic single flash 0dB amplitude", "setting": "Brown Norway rats; 2 μg/eye, day 6", "result": 93, "unit": "μV"}, {"measurement": "OP#3 scotopic single flash 0dB amplitude", "setting": "Brown Norway rats; 2 μg/eye, day 6", "result": 239, "unit": "μV"}, {"measurement": "OP#4 scotopic single flash 0dB amplitude", "setting": "Brown Norway rats; 2 μg/eye, day 6", "result": 182, "unit": "μV"}, {"measurement": "photopic 1Hz flicker A-wave amplitude", "setting": "Brown Norway rats; 2 μg/eye, day 6", "result": -3, "unit": "μV"}, {"measurement": "photopic 1Hz flicker B-wave amplitude", "setting": "Brown Norway rats; 2 μg/eye, day 6", "result": 69, "unit": "μV"}, {"measurement": "photopic 29Hz flicker B-wave amplitude", "setting": "Brown Norway rats; 2 μg/eye, day 6", "result": 11, "unit": "μV"}, {"measurement": "scotopic single flash 0dB A-wave amplitude", "setting": "Brown Norway rats; 2 μg/eye, day 6", "result": -205, "unit": "μV"}, {"measurement": "scotopic single flash 0dB B-wave amplitude", "setting": "Brown Norway rats; 2 μg/eye, day 6", "result": 383, "unit": "μV"}, {"measurement": "scotopic single flash -10dB A-wave amplitude", "setting": "Brown Norway rats; 2 μg/eye, day 6", "result": -124, "unit": "μV"}, {"measurement": "scotopic single flash -30dB B-wave amplitude", "setting": "Brown Norway rats; 2 μg/eye, day 6", "result": 270, "unit": "μV"}, {"measurement": "OP#1 scotopic single flash 0dB amplitude", "setting": "Brown Norway rats; 2 μg/eye, day 13", "result": 33, "unit": "μV"}, {"measurement": "OP#2 scotopic single flash 0dB amplitude", "setting": "Brown Norway rats; 2 μg/eye, day 13", "result": 92, "unit": "μV"}, {"measurement": "OP#3 scotopic single flash 0dB amplitude", "setting": "Brown Norway rats; 2 μg/eye, day 13", "result": 219, "unit": "μV"}, {"measurement": "OP#4 scotopic single flash 0dB amplitude", "setting": "Brown Norway rats; 2 μg/eye, day 13", "result": 160, "unit": "μV"}, {"measurement": "photopic 1Hz flicker A-wave amplitude", "setting": "Brown Norway rats; 2 μg/eye, day 13", "result": -6, "unit": "μV"}, {"measurement": "photopic 1Hz flicker B-wave amplitude", "setting": "Brown Norway rats; 2 μg/eye, day 13", "result": 91, "unit": "μV"}, {"measurement": "photopic 29Hz flicker B-wave amplitude", "setting": "Brown Norway rats; 2 μg/eye, day 13", "result": 17, "unit": "μV"}, {"measurement": "scotopic single flash 0dB A-wave amplitude", "setting": "Brown Norway rats; 2 μg/eye, day 13", "result": -261, "unit": "μV"}, {"measurement": "scotopic single flash 0dB B-wave amplitude", "setting": "Brown Norway rats; 2 μg/eye, day 13", "result": 524, "unit": "μV"}, {"measurement": "scotopic single flash -10dB A-wave amplitude", "setting": "Brown Norway rats; 2 μg/eye, day 13", "result": -152, "unit": "μV"}, {"measurement": "scotopic single flash -30dB B-wave amplitude", "setting": "Brown Norway rats; 2 μg/eye, day 13", "result": 292, "unit": "μV"}, {"measurement": "OP#1 scotopic single flash 0dB amplitude", "setting": "Brown Norway rats; 2 μg/eye, day 20", "result": 26, "unit": "μV"}, {"measurement": "OP#2 scotopic single flash 0dB amplitude", "setting": "Brown Norway rats; 2 μg/eye, day 20", "result": 49, "unit": "μV"}, {"measurement": "OP#3 scotopic single flash 0dB amplitude", "setting": "Brown Norway rats; 2 μg/eye, day 20", "result": 137, "unit": "μV"}, {"measurement": "OP#4 scotopic single flash 0dB amplitude", "setting": "Brown Norway rats; 2 μg/eye, day 20", "result": 130, "unit": "μV"}, {"measurement": "photopic 1Hz flicker A-wave amplitude", "setting": "Brown Norway rats; 2 μg/eye, day 20", "result": -2, "unit": "μV"}, {"measurement": "photopic 1Hz flicker B-wave amplitude", "setting": "Brown Norway rats; 2 μg/eye, day 20", "result": 45, "unit": "μV"}, {"measurement": "photopic 29Hz flicker B-wave amplitude", "setting": "Brown Norway rats; 2 μg/eye, day 20", "result": 9, "unit": "μV"}, {"measurement": "scotopic single flash 0dB A-wave amplitude", "setting": "Brown Norway rats; 2 μg/eye, day 20", "result": -147, "unit": "μV"}, {"measurement": "scotopic single flash 0dB B-wave amplitude", "setting": "Brown Norway rats; 2 μg/eye, day 20", "result": 278, "unit": "μV"}, {"measurement": "scotopic single flash -10dB A-wave amplitude", "setting": "Brown Norway rats; 2 μg/eye, day 20", "result": -84, "unit": "μV"}, {"measurement": "scotopic single flash -30dB B-wave amplitude", "setting": "Brown Norway rats; 2 μg/eye, day 20", "result": 166, "unit": "μV"}, {"measurement": "substance-related deaths", "setting": "Brown Norway rats; 0.2 and 2 μg/eye IVT", "result": "XG-102 관련된 사망은 없었다"}, {"measurement": "overall effect on decrease of ERG wave amplitudes", "setting": "Brown Norway rats; rat, in vivo", "result": "웨이브 진폭의 감소를 역전시키는 경향이 있다"}, {"measurement": "vascular leakage on fluorescein angiography", "setting": "Brown Norway rats; rat, in vivo", "result": "혈관 누출을 나타내지 않았고"}, {"measurement": "tumour growth", "setting": "[1]", "result": "종양 성장을 현저하게 감소시켰다"}, {"measurement": "mice with more than 1 liver metastasis", "setting": "[2]; 0.1 mg/kg PO", "result": 25, "unit": "%"}, {"measurement": "mean body weight change at D-2", "setting": "[2]; 0.1 mg/kg/adm PO", "result": "7.1±4.6", "unit": "%"}, {"measurement": "number of mice without liver metastasis", "setting": "[2]; 1 mg/kg PO", "result": "가장 높았으며"}, {"measurement": "mice with more than 1 liver metastasis", "setting": "[2]; 1 mg/kg PO, vehicle 40%", "result": 12.5, "unit": "%"}, {"measurement": "mice with more than 1 liver metastasis", "setting": "[2]; 1 mg/kg SC", "result": 25, "unit": "%"}, {"measurement": "mortality D0-D9 (surgical complications) in the four treated groups, as listed", "setting": "[2]; PO/SC 0.1 and 1 mg/kg Q1Dx14, vehicle 33%, group order not given", "result": "40% and 34% and 47%"}, {"measurement": "tolerance of treatment", "setting": "[2]; Q1Dx14", "result": "내약(tolerated)되었음"}, {"measurement": "AUC 1-8 g (allodynia) vs vehicle", "setting": "[3]; 50 mg/mL i.ves.", "result": "현저하게 감소되었다"}, {"measurement": "AUC 8-60 g (hyperalgesia) vs vehicle", "setting": "[3]; 50 mg/mL i.ves.", "result": "감소되었다"}, {"measurement": "haemorrhage score", "setting": "[3]; 50 mg/mL i.ves.", "result": "통계적으로 현저한 것에 이르지는 않았다"}, {"measurement": "nociceptive scores vs vehicle", "setting": "[3]; 50 mg/mL i.ves.", "result": "현저하게 감소시켰다"}, {"measurement": "urinary bladder wall thickness", "setting": "[3]; 50 mg/mL i.ves.", "result": "현저하게 감소되었다"}, {"measurement": "nociceptive threshold vs vehicle", "setting": "[3]; 50 mg/mL, 500 μL i.ves.", "result": "현저하게 증가하였다"}, {"measurement": "JNK activity (pJNK/JNK) induced by H2O2", "setting": "[4]", "result": "JNK 활성을 억제하였다"}, {"measurement": "LPS-induced TNFa, IL-6, Rantes release", "setting": "murine macrophages", "result": "사이토카인 방출을 억제한다"}, {"measurement": "NOAEL", "setting": "[5]", "result": "~600", "unit": "µg"}]}]}
